Test results: patent US20250326813A1 (ELPIS BIOPHARMACEUTICALS, published 2025)
Numbering of substitutions follows the chain as printed. Numbers in names are those of the source. Blank lines part the entries; values can stand above or below the binder they belong to.

Experiments:
[1] = target: T1, human IL2Rα Fc fusion protein (human, UniProt P01589 22-213, limits assumed); assay: ELISA on coated receptor-Fc, anti-His detection; grade by OD450 (weak: 0.3-0.7)
T1 construct: also called CD25; not shown: Fc part
T1 sequence (looked up): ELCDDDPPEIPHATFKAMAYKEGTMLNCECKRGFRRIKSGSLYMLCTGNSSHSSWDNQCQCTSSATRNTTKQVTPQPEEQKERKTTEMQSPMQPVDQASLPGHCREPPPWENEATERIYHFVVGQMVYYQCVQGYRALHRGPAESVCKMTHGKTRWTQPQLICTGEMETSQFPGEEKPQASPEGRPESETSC
Protocol: (§1) Mammalian cell-produced agonists were characterized for their binding activities to respective IL2Rβ and IL2Rα receptors by ELISA. Briefly, 384 well plate was immobilized with human IL2Rα and IL2Rβ Fc fusion proteins at a final concentration of 2 μg/mL in 1× PBS in total volume of 25 μL per well. The plate was incubated overnight at 4° C. and blocked with 80 μL of superblock per well for 1 hour. The purified clones were added to IL2Rα or IL-2Rβ wells in parallel in duplicates as a titration, with the highest concentration of 1 μM, followed by a 10 point 5× serial dilution of the clones. The binding activity was detected by adding 25 μL of anti-His HRP diluted at 1:5000 in 1× PBST. In between each step, the plate was washed three times with 1× PBST using a plate washer. The plate was then developed with 25 μL of TMB substrate for five minutes and stopped by adding 25 μL of 2N sulfuric acid. The plate was read at OD450 nm Biotek plate reader and the bar graph at 1 μM of IL2 was generated with Prism 8.1 software (FIG. 2).

[2] = target: T2, human IL2Rβ Fc fusion protein (human, UniProt P14784 27-239); assay: as above
T2 construct: also called ILR2β; CD122; not shown: Fc part
T2 sequence (looked up): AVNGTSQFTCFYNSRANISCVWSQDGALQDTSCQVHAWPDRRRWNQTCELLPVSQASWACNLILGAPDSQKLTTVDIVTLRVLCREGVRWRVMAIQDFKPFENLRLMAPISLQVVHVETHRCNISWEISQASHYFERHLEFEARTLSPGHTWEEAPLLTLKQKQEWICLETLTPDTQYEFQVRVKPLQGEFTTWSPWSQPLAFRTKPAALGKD
Protocol: as §1

[3] = target: T2, human IL2Rβ Fc fusion protein; assay: SPR (Biacore T200), receptor captured on Protein A chip
Protocol: The assay was run with Biacore T200 control software version 2.0. For each cycle, 1 μg/mL of human IL2Rβ or IL2Rα was captured for 60 seconds at flow rate of 10 μL/min on flow cell 2 in 1× HBSP buffer on Protein A sensor chip. 100 nM and 20 nM of HIS tag purified engineered IL2 mutant was injected onto both reference flow cell 1 and IL2Rβ or IL2Rα captured flow cell 2 for 150 seconds at flow rate of 30 μL/min followed by washing for 300 seconds. The flow cells were then regenerated with Glycine pH 2 for 60 seconds at a flow rate of 30 μL/mins. The kinetics data was analyzed with Biacore T200 evaluation software 3000. The specific binding response unit was derived from subtraction of binding to reference flow cell 1 from target flow cell 2.

[4] = target: T1, human IL2Rα Fc fusion protein; assay: ELISA, single concentration, anti-flag detection, E. coli-produced clone
Protocol: (§2) Supernatants containing engineered IL2 mutants were assessed with sandwich ELISA assay to screen for IL2Rα binding. Briefly, 96-well plate was immobilized with human Fc and human IL2Rα, respectively, at a final concentration of 2 μg/mL in 1× PBS in total volume of 50 μL per well. The plate was incubated overnight at 4° C. followed by blocking with 200 μL of superblock per well for 1 hour. 100 μl of supernatant was added to both Fc and IL2Rα immobilized wells and incubated for 1 hour with shaking. The engineered IL2 mutant binding was detected by adding 50 μL of anti-Flag HRP diluted at 1:5000 in 1× PBST. In between each step, the plate was washed three times with 1× PBST in a plate washer. The plate was then developed with 50 μL of TMB substrate for five minutes and stopped by adding 50 μL of 2N sulfuric acid. The plate was read at OD450 nm using a Biotek plate reader and the binding and selectivity was analyzed.
as §2, with “Single clones were next screened for IL2Rβ binding. IL2Rβ binding screening ELISA was developed for the identification of individual” for “Supernatants containing”, “mutant.” for “mutants were assessed with sandwich ELISA assay to screen for IL2Rα binding.”, “IL2Rβ,” for “IL2Rα,”, “IL2Rβ” for “IL2Rα”
(§3) To further triage, the engineered IL2 clones with unique sequences were produced in E. coli. In short, the glycerol stock of each engineered agonist clone was inoculated into TB medium for overnight growth. The next day, cells from the overnight culture were inoculated into TB medium and grown to a cell density of OD₆₀₀ between 0.6-0.8. IPTG was added to a final concentration of 1 mM to induce the expression during culture at 30° C. overnight. The supernatant was collected by centrifugation.

[5] = target: T2, human IL2Rβ Fc fusion protein; assay: as above
Protocol: as §2
as §2, with “Single clones were next screened for IL2Rβ binding. IL2Rβ binding screening ELISA was developed for the identification of individual” for “Supernatants containing”, “mutant.” for “mutants were assessed with sandwich ELISA assay to screen for IL2Rα binding.”, “IL2Rβ,” for “IL2Rα,”, “IL2Rβ” for “IL2Rα”
as §3

[6] = target: T1, human IL2Rα Fc fusion protein; assay: ELISA on coated receptor-Fc, anti-His detection, single point 10 µM
Protocol: (§4) Back-mutations were characterized for their binding activities to IL2Rβ and IL2Rα receptors by ELISA. Briefly, 384 well plate was immobilized with human IL2Rα and IL2Rβ Fc fusion proteins at a final concentration of 2 μg/mL in 1× PBS in total volume of 25 μL per well. The plate was incubated overnight at 4° C. and blocked with 80 μL of superblock per well for 1 hour. […] The IL2 mutant binding was detected by adding 25 μL of anti-His HRP diluted at 1:5000 in 1× PBST. In between each step, the plate was washed three times with 1× PBST using a plate washer. […] The plate was then developed with 25 μL of TMB substrate for five minutes and stopped by adding 25 μl of 2N sulfuric acid. The plate was read at OD450 nm Biotek plate reader (Table 6) and the data was analyzed with Prism 8.1 software to generate bar graph (FIG. 5).

[7] = target: T2, human IL2Rβ Fc fusion protein; assay: as above
Protocol: as §4

[8] = target: T1, human IL2Rα Fc fusion protein; assay: ELISA: human IL2Rα Fc fusion coated at 2 µg/mL, purified His-tagged IL2 titrated from 1 µM in 5x steps, anti-His HRP, OD450
Protocol: as §1

[9] = target: T2, human IL2Rβ Fc fusion protein; assay: ELISA: human IL2Rβ Fc fusion coated at 2 µg/mL, purified His-tagged IL2 titrated from 1 µM in 5x steps, anti-His HRP, OD450
Protocol: as §1

[10] = target: T1, human IL2Rα Fc fusion protein; assay: ELISA on coated receptor-Fc, anti-His detection
Protocol: as §1

OD450 [1]: 0.3 to 0.7 od | OD450 [2]: 0.3 to 0.7 od
B1: EP567, mammalian cell-produced (ligand)
chain: APASSSTKKTQLQLEHLLLDLQMILNGINNYKNPLLTDMLTRKFYMPKKATELKHLQCLEEELKPLEEVLNLAQSKNFHLSLREPIGNIVTSVRELKGSETTFMCEYADETATIVEFLNRWITFSQSIISTLT
notes: also called 2021EP21-C04

OD450 nm [4]: 1.25 OD450 | OD450 nm [5]: 0.105 OD450
B2: EP568 (clone 2021EP16-H06), E. coli-produced (ligand)
chain: APASSSTKKTQLQLEHLLLDLQMILNGINNYKNPKLTRMLTFKFYMPKKATELKHLQCLEEELKPLEEVLNLAQSKNFHLLAKRTVSNMYVRVEELKGSETTFMCEYADETATIVEFLNRWITFSQSIISTLT
binding result [3]: no binding (tested: Rmax < 5RU; 100 nM and 20 nM)

Average OD (450 nm) [6]: 0.077 OD450 | Average OD (450 nm) [7]: 0.096 OD450
B3: EP665, EP575 back-mutation clone (ligand)
chain: APASSSTKKTQLQLEHLLLDLQMILNGINNYKNPLLTDMLTRKFYMPKKATELKHLQCLEEELKPLEEVLNLAQSKNFHLRNRGLISDINNIVLALKGSETTFMCEYADETATIVEFLNRWITFSQSIISTLT
notes: Mammalian-produced, His-tagged

Average OD (450 nm) [6]: 0.113 OD450 | Average OD (450 nm) [7]: 0.17 OD450
B4: EP668, EP575 back-mutation clone (ligand)
chain: B3 chain with N82P, S87G, N90S
notes: as for B3

OD450 [1]: 0.3 to 0.7 od | OD450 [2]: 0.3 to 0.7 od
B5: EP581, mammalian cell-produced (ligand)
chain: B3 chain with N82S, G84E, L85V, I86V, D88R, N90D, N91A, V93I, A95E
notes: also called 2021EP16-C10

Average OD (450 nm) [6]: 0.082 OD450 | Average OD (450 nm) [7]: 0.09 OD450
B6: EP671, EP575 back-mutation clone (ligand)
chain: B3 chain with N82P, R83K, S87G
notes: as for B3

Average OD (450 nm) [6]: 0.083 OD450 | Average OD (450 nm) [7]: 0.083 OD450
B7: EP662, EP575 back-mutation clone (ligand)
chain: B3 chain with N82P, R83K
notes: as for B3

binding result [8]: no binding (tested: 1000 nM) | binding result [9]: no binding (tested: 1000 nM)
B8: EP576, mammalian cell-produced, with F35L, R38D and F42R (ligand)
chain: APASSSTKKTQLQLEHLLLDLQMILNGINNYKNPLLTDMLTRKFYMPKKATELKHLQCLEEELKPLEEVLNLAQSKNFHLLPRNKISKTKVMVHELKGSETTFMCEYADETATIVEFLNRWITFSQSIISTLT
notes: His-Flag tag not in the parts; also called 2021EP21-C10

Average OD (450 nm) [6]: 0.082 OD450 | Average OD (450 nm) [7]: 0.082 OD450
B9: EP669, EP575 back-mutation clone (ligand)
chain: B3 chain with N82P, R83K, N90S
notes: as for B3

Average OD (450 nm) [6]: 0.12 OD450 | Average OD (450 nm) [7]: 0.87 OD450
B10: EP658, EP575 back-mutation clone (ligand)
chain: B3 chain with N82P, N90S
notes: as for B3

Average OD (450 nm) [6]: 0.11 OD450 | Average OD (450 nm) [7]: 0.501 OD450
B11: EP661, EP575 back-mutation clone (ligand)
chain: B3 chain with N82P, R83K, D88N, N90S
notes: as for B3

Average OD (450 nm) [6]: 0.084 OD450 | Average OD (450 nm) [7]: 0.082 OD450
B12: EP675, EP575 back-mutation clone (ligand)
chain: B3 chain with R83K, D88N, N90S
notes: as for B3

OD450 [2]: 0.3 to 0.7 od | binding result [10]: no binding (tested: OD450 < 0.1; 1 µM)
B13: EP573, mammalian cell-produced, with F35L, R38D and F42R (ligand)
chain: APASSSTKKTQLQLEHLLLDLQMILNGINNYKNPLLTDMLTRKFYMPKKATELKHLQCLEEELKPLEEVLNLAQSKNFHLNRTDLVGDVNATIKALKGSETTFMCEYADETATIVEFLNRWITFSQSIISTLT
notes: His-Flag tag not in the parts; also called 2021EP16-E02

OD450 [2]: 0.3 to 0.7 od | binding result [8]: no binding (tested: 1000 nM) | Average OD (450 nm) [6]: 0.113 OD450 | Average OD (450 nm) [7]: 0.093 OD450
B14: EP575, mammalian cell-produced (ligand)
chain: B3 chain with R83K, L85I, I86L, S87G, N90S
notes: also called 2021EP16-D09

binding result [10]: no binding (tested: OD450 < 0.1; 1 µM) | binding result [9]: no binding (tested: 1000 nM)
B15: EP580, mammalian cell-produced, with F35L, R38D and F42R (ligand)
chain: APASSSTKKTQLQLEHLLLDLQMILNGINNYKNPLLTDMLTRKFYMPKKATELKHLQCLEEELKPLEEVLNLAQSKNFHLRIRDLLNKINELHRYIKGSETTFMCEYADETATIVEFLNRWITFSQSIISTLT
notes: His-Flag tag not in the parts; also called 2021EP16-H09
